Measured values as given in article PMC12784962, “https://orcid.org/0000-0002-3633-7823 Baral Joydeep Department of Bioscience and Biotechnology, Indian Institute of Technology Kharagpur, West Midnapore 721302, West Bengal, India”.

Experiments:
mKu WT [1] = biological target: T1, mKu WT (Mycobacterium tuberculosis, UniProt P9WKD9 1-273); assay: cryo-EM; 5 uM mKu dimer and 5 uM DNA; supercomplex; EMSA: 25 mM Tris-Cl pH 7.5, 100 mM NaCl, 30 mM KCl, 0.1 mM EDTA, 0.05% Triton X-100, BSA, 2% glycerol, 2 mM DTT, 25 C, 30 min; FRET: 10 mM PBS pH 7.4, 25 C; cryo-EM: 4 C, 30 min; conditions: protein: recombinant; pET16b); chain copies: 2; hairpin at one end, other end blunt
T1 sequence: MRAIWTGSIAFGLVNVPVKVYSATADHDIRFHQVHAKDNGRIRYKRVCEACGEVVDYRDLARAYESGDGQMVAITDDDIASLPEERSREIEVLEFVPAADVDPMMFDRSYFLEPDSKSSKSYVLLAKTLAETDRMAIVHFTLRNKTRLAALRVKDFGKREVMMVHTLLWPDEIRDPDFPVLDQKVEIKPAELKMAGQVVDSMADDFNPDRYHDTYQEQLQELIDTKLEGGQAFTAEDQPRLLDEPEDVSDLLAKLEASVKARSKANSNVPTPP

mKu WT [2] = biological target: T1, mKu WT; assay: FRET; 250 nM DNA, 0-305 nM mKu; saturating synapsis signal; EMSA: 25 mM Tris-Cl pH 7.5, 100 mM NaCl, 30 mM KCl, 0.1 mM EDTA, 0.05% Triton X-100, BSA, 2% glycerol, 2 mM DTT, 25 C, 30 min; FRET: 10 mM PBS pH 7.4, 25 C; cryo-EM: 4 C, 30 min; conditions: protein: recombinant; pET16b); chain copies: 2; label: S4: 5'-Cy5, 3'-Cy3; complement (S5): 5'-Cy3, 3'-Cy5; blunt

B1: shDNA (21-mer/34-mer hairpin) (structured_DNA)
DNA 1: GTTTTTAGTTTATTGGGCGCG
DNA 2: CGCGCCCAGCTTTCCCAGCTAATAAACTAAAAAC
binding result (mKu WT [1]): binds

B2: 50-bp Cy3/Cy5 FRET dsDNA (dsDNA)
DNA 1: CCACACTGTCGCCGCCGACGTCTGTGATATGGCGTTGTTGCGCCGCCGAC
DNA 2: GTCGGCGGCGCAACAACGCCATATCACAGACGTCGGCGGCGACAGTGTGG
binding result (mKu WT [2]): binds
